We go through one substance from patent publication US20070053894A1.

Test [1] deals with Soluble human recombinant p97 (melanotransferrin) (human) (UniProt P08582). The experiment in a line: SPR (BIAcore), p97 immobilised on CM5 chip, mAb injected.
The target is the same in test [2]. The experiment in a line: cell-based or functional assay.
Test [3] addresses endogenous membrane-bound p97 of HMEC-1 and SK-MEL28 cells (human) (UniProt P08582). The experiment in a line: cell-based or functional assay.
The target of test [4] is Soluble human recombinant p97 (melanotransferrin) (human) (UniProt P08582). Put plainly: SPR (BIAcore), p97 immobilised on CM5 chip, mAb injected at 0.05 µg/µl.

Chain of endogenous membrane-bound p97 of HMEC-1 and SK-MEL28 cells (human) (P08582 20-709): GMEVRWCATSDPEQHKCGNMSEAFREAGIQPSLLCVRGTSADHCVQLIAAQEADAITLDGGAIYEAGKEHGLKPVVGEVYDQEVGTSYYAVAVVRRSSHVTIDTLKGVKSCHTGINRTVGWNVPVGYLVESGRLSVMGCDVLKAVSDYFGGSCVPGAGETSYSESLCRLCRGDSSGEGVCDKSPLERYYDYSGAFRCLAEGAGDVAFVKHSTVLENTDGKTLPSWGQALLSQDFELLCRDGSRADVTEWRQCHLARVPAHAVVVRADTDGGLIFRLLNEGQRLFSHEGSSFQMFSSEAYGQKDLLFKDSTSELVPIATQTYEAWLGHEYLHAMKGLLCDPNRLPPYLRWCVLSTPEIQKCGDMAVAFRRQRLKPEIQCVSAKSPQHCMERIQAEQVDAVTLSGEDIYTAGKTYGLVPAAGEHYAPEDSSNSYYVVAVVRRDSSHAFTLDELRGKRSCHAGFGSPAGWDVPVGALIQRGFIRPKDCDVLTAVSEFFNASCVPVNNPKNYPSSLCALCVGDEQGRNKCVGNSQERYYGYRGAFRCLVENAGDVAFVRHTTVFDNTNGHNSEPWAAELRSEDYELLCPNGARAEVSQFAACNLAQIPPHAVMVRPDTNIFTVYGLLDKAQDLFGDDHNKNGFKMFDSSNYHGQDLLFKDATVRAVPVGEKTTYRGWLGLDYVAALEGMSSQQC
Chain of Soluble human recombinant p97 (melanotransferrin) (human) (P08582 20-711 T431K): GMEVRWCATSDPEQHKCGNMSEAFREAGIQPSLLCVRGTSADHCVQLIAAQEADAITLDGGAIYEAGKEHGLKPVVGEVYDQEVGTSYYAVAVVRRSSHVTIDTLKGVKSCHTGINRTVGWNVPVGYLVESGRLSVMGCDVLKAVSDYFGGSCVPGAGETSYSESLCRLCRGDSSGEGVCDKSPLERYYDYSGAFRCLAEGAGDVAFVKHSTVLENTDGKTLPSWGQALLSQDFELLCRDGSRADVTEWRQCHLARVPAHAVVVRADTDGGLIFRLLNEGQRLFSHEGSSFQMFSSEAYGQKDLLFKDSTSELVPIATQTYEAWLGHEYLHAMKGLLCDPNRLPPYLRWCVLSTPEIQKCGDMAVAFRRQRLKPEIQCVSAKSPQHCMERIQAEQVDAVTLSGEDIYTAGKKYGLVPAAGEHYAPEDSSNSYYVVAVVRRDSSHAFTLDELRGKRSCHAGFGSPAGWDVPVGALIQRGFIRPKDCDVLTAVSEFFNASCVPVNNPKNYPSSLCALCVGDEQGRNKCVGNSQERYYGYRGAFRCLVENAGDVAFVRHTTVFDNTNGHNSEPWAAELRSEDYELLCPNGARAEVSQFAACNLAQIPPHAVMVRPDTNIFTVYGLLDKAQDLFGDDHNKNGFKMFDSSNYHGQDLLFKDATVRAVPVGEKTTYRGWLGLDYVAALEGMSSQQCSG

For orientation: Kd means the equilibrium constant for the complex coming apart. As usually defined, the koff is the first-order rate constant of dissociation. A word on the kon: it is a measure of how fast the partners come together. On to “monoclonal antibody L235 directed against p97”, for which, in test [1], the Ka was found to be 9e+08 M⁻¹, the equilibrium dissociation constant (Kd) worked out at 1.2 nM, the koff came out at 5.3e-05 s⁻¹ and the on-rate (kon) was 44000 M⁻¹ s⁻¹. Further, in test [2], the inhibition of the effect of soluble p97 on plasminogen activation by tPA came to 80% and the inhibition of the pro-uPA activation induced by p97 (plasminolytic activity) amounted to 50%. In test [3], this substance displayed an inhibition of HMEC-1 cell migration by 50 nM mAb L235 (Boyden chamber) of 54%, an inhibition of SK-MEL28 cell migration by 50 nM mAb L235 (Boyden chamber) of 48% and an inhibition of plasminolytic activity of HMEC-1 cells by 250 nM mAb L235 greater than 50%. Moreover, in test [4], the ΔRU was determined as 1060 RU.
